Reference: the supplement of paper PMC9732359
± gives the uncertainty stated by the source.

assay: protein stability index of a GFP-peptide fusion (yeast GPS) (PSI 1-4); higher = more stable; sorted into four equal gates, so the index is relative within each strain; conditions: pdr5∆
Procedure, shortened: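 Each library plasmid carries Cherry plus GFP with a tiled 17-residue yeast protein peptide fused downstream, and the pooled library was carried in yeast. Mid-log cultures in leucine-free medium were sorted into four equal gates by GFP/Cherry ratio. Reads from Illumina sequencing of PCR-amplified plasmids from each gate were assigned to strains by barcodes. Per peptide, the protein stability index was computed as the summed products of gate read frequency and gate number.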

| Sequence | protein stability index |
| --- | --- |
| ILEESLNAIILKLEKLN [SMC3] | 1.72 ± 0.062 |
| ILGDLGKEFGTTPEKPE [FAS2] | 2.69 ± 0.072 |

same assay, conditions: san1∆

| Sequence | protein stability index |
| --- | --- |
| HTKSDERSELLRLFNAP [SNF2] | 2.78 ± 0.049 |
| HTLMSFAGEAGDTVQFA [PRE1] | 2.95 ± 0.095 |
| HVQFRLGNVDAFQLADG [PRP8] | 2.47 ± 0.11 |
| HWMGSSVSGSPRPSYSS [YMR129W/POM152] | 2.74 ± 0.07 |
| HYMVHEALNLLKFFLVD [LIN1] | 1.79 ± 0.081 |
| HYNDSQQLRTWKRQISY [SRB8] | 3.21 ± 0.09 |
| IAATAVASLVLARGHRV [RPL4A] | 2.08 ± 0.24 |
| IADQDMEDEDMVDVIID [ESC2] | 3.15 ± 0.088 |
| IAKIKKVCECVCMHCGK [RPO21] | 2.7 ± 0.091 |
| IAKLVAVLNVSPVYDVD [NUT1] | 1.7 ± 0.084 |
| IALRNGQSSVKHEDFVE [RPT5] | 3.23 ± 0.14 |
| IALSRRFLLNGRVKALE [YDL116W/NUP84] | 1.19 ± 0.13 |
| IARLYSCISISDIISML [RRI2] | 1.24 ± 0.093 |
| IASAGKDGEIMLWNLAA [ASC1] | 3.03 ± 0.054 |
| IASDGSECIVSIKSKVV [RRP42] | 2.7 ± 0.2 |
| ICEPKETLSIFTNVPLN [YJL039C/NUP192] | 2.54 ± 0.05 |
| ICMESLFLEPSWSSSAA [PCI8] | 2.63 ± 0.15 |
| ICYDVNDWQMLEMLKPC [RPB2] | 2.46 ± 0.073 |
| IDDENITKLNKEIRAFD [SRB4] | 3.27 ± 0.043 |
| IDELIDTKLRLEKSKNE [YIL149C/MLP2] | 2.8 ± 0.04 |
| IDKFIMVVQKYKLSTVV [GRR1] | 1.58 ± 0.11 |
| IDKLSDVVMKATEPQMV [PRP8] | 2.42 ± 0.065 |
| IDLDNDEDDDEDVTDQE [DLS1] | 2.86 ± 0.083 |
| IDRKVEFSLPDLEGRAN [RPT1] | 3.08 ± 0.17 |
| IDSQMDEASGTPDEDML [GRR1] | 2.85 ± 0.068 |

| Sequence | protein stability index |
| --- | --- |
| IEDDGIIESHLIQLQNI [CSN9] | 2.97 ± 0.075 |
| IEDEDEPFNAGIKYHAT [SMC1] | 2.9 ± 0.062 |
| IEEQDKKVQALQSDKNF [ITC1] | 3.14 ± 0.045 |
| IEKLTDGHLRAPLKHGV [BRR2] | 3.01 ± 0.051 |
| IELTSYESIATYASVTG [RPN7] | 1.11 ± 0.22 |
| IEPFECVEISHISKIIG [RPN6] | 1.94 ± 0.3 |
| IERDSLVDDENEPSQSL [BRN1] | 3.18 ± 0.082 |
| IESDSILNLLNILTTHL [ECM29] | 1.75 ± 0.049 |
| IESIVNLAPKLRNVFLG [GRR1] | 1.26 ± 0.14 |
| IEWCSRCNDNLMRSCFY [YJL039C/NUP192] | 2.9 ± 0.067 |
| IFAGAFVFQTVFDTAIT [QCR9] | 1.48 ± 0.076 |
| IFALVFSSNERYFFWLQ [RPN13] | 1.65 ± 0.08 |
| IFCIDLEVFHHFFKWIE [SRB8] | 1.38 ± 0.14 |
| IFDGNYGESDIHFREHQ [YMR129W/POM152] | 3.58 ± 0.2 |
| IFIRQLKENEENEDGNI [BRR2] | 3.2 ± 0.067 |
| IFKGIGGNFKDLSTLVH [GAL11] | 1.83 ± 0.073 |
| IFLQQFLQELLKKVQQQ [SWI1] | 2.56 ± 0.11 |
| IFLSKENSAVAAKEGLA [COR1] | 1.95 ± 0.14 |
| IFTDAGRVYRPLFIVED [RPB2] | 2.06 ± 0.074 |
| IGANIYQSPTIFKIVQS [MED6] | 1.84 ± 0.1 |
| IGAVYSGMGPDYRVLVD [PRE8] | 2.92 ± 0.3 |
| IGDKFASRHGQKGTIGI [RPB2] | 1.57 ± 0.16 |
| IGIVEIAHENEQKWLIY [SRB8] | 1.58 ± 0.086 |
| IGLIALSATGTRSAKKM [YJR042W/NUP85] | 3 ± 0.15 |
| IGMSLLMRTFLYTLAQE [SIR3] | 1.83 ± 0.1 |

| Sequence | protein stability index |
| --- | --- |
| IHLQRFDEGTTLLSPKD [RPO21] | 2.91 ± 0.16 |
| IHNYDSKKSTITVRYWL [RGR1] | 2.69 ± 0.067 |
| IIANINSFTKGNVFSPI [SNU114] | 2.43 ± 0.05 |
| IIDRGRNVLSASLDGTI [RPN14] | 2.97 ± 0.055 |
| IIELENINAKMETRINI [YIL149C/MLP2] | 2.5 ± 0.069 |
| IIFEIEKPLVVPVKLEE [RRP6] | 2.21 ± 0.12 |
| IILLGVLEDCRHLPMYT [ITC1] | 2.44 ± 0.099 |
| IIVKILYYRPHINKKSQ [GRR1] | 1.23 ± 0.18 |
| IKAPTVAADGKLVTYIV [YLR335W/NUP2] | 1.55 ± 0.084 |
| IKDLQRAINKVLCTRLR [SIR2] | 1.18 ± 0.11 |
| IKELEHLHDAVFVNTGL [SWP82] | 3.06 ± 0.059 |
| IKKEEGKIDEAADILCE [RPN5] | 2.95 ± 0.11 |
| IKKFAKLHMGTEDVRLA [RPL31B] | 2.71 ± 0.15 |
| IKKPTSAVVSSNASRRK [RPN4] | 2.36 ± 0.076 |
| IKNFKSLLLSSSFKEDC [SSN2] | 2.96 ± 0.086 |
| IKNLGLPSDRCSKAMGD [RPP1] | 3.25 ± 0.23 |
| IKVDGAVGNLGNAIEVT [RPL22B] | 1.8 ± 0.14 |
| IKVLLRQNRRPELGDKF [RET1] | 3.36 ± 0.09 |
| ILARNDEEMAVLTRMDE [SNF2] | 2.37 ± 0.084 |
| ILDAICFVLGIASMSTV [SMC2] | 1.78 ± 0.067 |
| ILDITDEELVSHFVSAV [RPP0] | 3.01 ± 0.13 |
| ILDPSTEYCVGDYVAYQ [YMR129W/POM152] | 2.47 ± 0.21 |
| ILEESLNAIILKLEKLN [SMC3] | 1.5 ± 0.14 |
| ILGDLGKEFGTTPEKPE [FAS2] | 2.51 ± 0.057 |

same assay, conditions: ubr1∆

| Sequence | protein stability index |
| --- | --- |
| HTKSDERSELLRLFNAP [SNF2] | 3.04 ± 0.06 |
| HTLMSFAGEAGDTVQFA [PRE1] | 3.22 ± 0.12 |
| HVQFRLGNVDAFQLADG [PRP8] | 1.61 ± 0.046 |
| HWMGSSVSGSPRPSYSS [YMR129W/POM152] | 2.87 ± 0.084 |
| HYMVHEALNLLKFFLVD [LIN1] | 2.11 ± 0.058 |
| HYNDSQQLRTWKRQISY [SRB8] | 3.32 ± 0.19 |
| IAACTGVPDDKWEQTYK [FAS1] | 1.31 ± 0.29 |
| IAATAVASLVLARGHRV [RPL4A] | 1.93 ± 0.09 |
| IADQDMEDEDMVDVIID [ESC2] | 3.15 ± 0.11 |
| IAKIKKVCECVCMHCGK [RPO21] | 2.43 ± 0.046 |
| IAKLVAVLNVSPVYDVD [NUT1] | 1.75 ± 0.043 |
| IALRNGQSSVKHEDFVE [RPT5] | 3.41 ± 0.16 |
| IALSRRFLLNGRVKALE [YDL116W/NUP84] | 1.24 ± 0.035 |
| IARLYSCISISDIISML [RRI2] | 1.17 ± 0.029 |
| IASAGKDGEIMLWNLAA [ASC1] | 3.09 ± 0.076 |
| IASDGSECIVSIKSKVV [RRP42] | 3.12 ± 0.19 |
| ICEPKETLSIFTNVPLN [YJL039C/NUP192] | 2.36 ± 0.037 |
| ICMESLFLEPSWSSSAA [PCI8] | 3.17 ± 0.11 |
| ICYDVNDWQMLEMLKPC [RPB2] | 2.61 ± 0.062 |
| IDDENITKLNKEIRAFD [SRB4] | 3.38 ± 0.056 |
| IDELIDTKLRLEKSKNE [YIL149C/MLP2] | 2.8 ± 0.032 |
| IDKFIMVVQKYKLSTVV [GRR1] | 1.86 ± 0.082 |
| IDKLSDVVMKATEPQMV [PRP8] | 2.28 ± 0.055 |
| IDLDNDEDDDEDVTDQE [DLS1] | 3.17 ± 0.15 |

| Sequence | protein stability index |
| --- | --- |
| IDRKVEFSLPDLEGRAN [RPT1] | 3.18 ± 0.1 |
| IDSQMDEASGTPDEDML [GRR1] | 3.02 ± 0.053 |
| IEDDGIIESHLIQLQNI [CSN9] | 2.76 ± 0.073 |
| IEDEDEPFNAGIKYHAT [SMC1] | 2.89 ± 0.05 |
| IEEQDKKVQALQSDKNF [ITC1] | 3.16 ± 0.036 |
| IEKLTDGHLRAPLKHGV [BRR2] | 2.04 ± 0.065 |
| IELTSYESIATYASVTG [RPN7] | 1.15 ± 0.12 |
| IERDSLVDDENEPSQSL [BRN1] | 3.2 ± 0.077 |
| IESDSILNLLNILTTHL [ECM29] | 2.32 ± 0.049 |
| IESIVNLAPKLRNVFLG [GRR1] | 1.42 ± 0.064 |
| IEWCSRCNDNLMRSCFY [YJL039C/NUP192] | 2.69 ± 0.083 |
| IFAGAFVFQTVFDTAIT [QCR9] | 1.67 ± 0.04 |
| IFALVFSSNERYFFWLQ [RPN13] | 1.87 ± 0.046 |
| IFDGNYGESDIHFREHQ [YMR129W/POM152] | 3.05 ± 0.15 |
| IFIRQLKENEENEDGNI [BRR2] | 2.01 ± 0.087 |
| IFKGIGGNFKDLSTLVH [GAL11] | 1.85 ± 0.067 |
| IFLQQFLQELLKKVQQQ [SWI1] | 2.5 ± 0.13 |
| IFLSKENSAVAAKEGLA [COR1] | 1.6 ± 0.062 |
| IFTDAGRVYRPLFIVED [RPB2] | 1.89 ± 0.033 |
| IGANIYQSPTIFKIVQS [MED6] | 2.27 ± 0.037 |
| IGAVYSGMGPDYRVLVD [PRE8] | 3.38 ± 0.12 |
| IGDKFASRHGQKGTIGI [RPB2] | 1.1 ± 0.041 |
| IGIVEIAHENEQKWLIY [SRB8] | 1.54 ± 0.034 |
| IGMSLLMRTFLYTLAQE [SIR3] | 1.76 ± 0.11 |

| Sequence | protein stability index |
| --- | --- |
| IHLQRFDEGTTLLSPKD [RPO21] | 2.98 ± 0.2 |
| IHNYDSKKSTITVRYWL [RGR1] | 3.09 ± 0.049 |
| IIANINSFTKGNVFSPI [SNU114] | 2.21 ± 0.039 |
| IIDRGRNVLSASLDGTI [RPN14] | 2.77 ± 0.044 |
| IIELENINAKMETRINI [YIL149C/MLP2] | 2.62 ± 0.063 |
| IIFEIEKPLVVPVKLEE [RRP6] | 2.14 ± 0.073 |
| IILLGVLEDCRHLPMYT [ITC1] | 2.47 ± 0.067 |
| IIVKILYYRPHINKKSQ [GRR1] | 2.51 ± 0.11 |
| IKAPTVAADGKLVTYIV [YLR335W/NUP2] | 2.16 ± 0.048 |
| IKDLQRAINKVLCTRLR [SIR2] | 1.54 ± 0.045 |
| IKELEHLHDAVFVNTGL [SWP82] | 2.91 ± 0.05 |
| IKKEEGKIDEAADILCE [RPN5] | 2.52 ± 0.069 |
| IKKFAKLHMGTEDVRLA [RPL31B] | 2.73 ± 0.14 |
| IKKPTSAVVSSNASRRK [RPN4] | 2.89 ± 0.27 |
| IKNFKSLLLSSSFKEDC [SSN2] | 3.11 ± 0.086 |
| IKVDGAVGNLGNAIEVT [RPL22B] | 1.58 ± 0.047 |
| IKVLLRQNRRPELGDKF [RET1] | 3.41 ± 0.092 |
| ILARNDEEMAVLTRMDE [SNF2] | 3.15 ± 0.047 |
| ILDAICFVLGIASMSTV [SMC2] | 1.67 ± 0.06 |
| ILDITDEELVSHFVSAV [RPP0] | 3.05 ± 0.071 |
| ILEESLNAIILKLEKLN [SMC3] | 2.24 ± 0.07 |
| ILGDLGKEFGTTPEKPE [FAS2] | 2.78 ± 0.066 |
